One test concerns the target T1, 重组Human-TROP-2-HIS蛋白 (human, UniProt P09758 27-274, limits assumed).
T1 construct: Bought protein; also called TROP-2-HIS蛋白 (恺佧, TRP-HM121); not shown: His tag
T1 sequence (looked up): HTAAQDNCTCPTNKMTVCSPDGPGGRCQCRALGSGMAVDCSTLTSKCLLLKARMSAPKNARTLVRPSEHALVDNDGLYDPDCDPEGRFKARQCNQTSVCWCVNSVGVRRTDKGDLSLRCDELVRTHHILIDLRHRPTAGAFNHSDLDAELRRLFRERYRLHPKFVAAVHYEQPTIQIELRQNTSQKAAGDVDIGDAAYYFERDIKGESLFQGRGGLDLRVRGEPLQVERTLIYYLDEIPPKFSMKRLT
The experiment in a line: ELISA, coated TROP-2-HIS 200 ng/ml, HRP goat anti-human Fc. Background: An ELISA detects its analyte on a solid surface through an enzyme-linked reagent.

Another test addresses T2, 重组Human-CD3-FC蛋白 (human).
T2 chain: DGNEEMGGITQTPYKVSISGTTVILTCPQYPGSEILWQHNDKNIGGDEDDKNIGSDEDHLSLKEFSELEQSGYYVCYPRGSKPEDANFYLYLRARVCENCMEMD
The test can be described thus: ELISA, coated CD3-FC 200 ng/ml, HRP goat anti-human Fab.

B1: KM4097HV3aLV0人源化单克隆抗体 (抗TROP-2单抗阳性对照) (antibody, V domains shown)
VH: QVQLVQSGPEVKKPGASVKVSCKASGYTFTIYWLGWVRQAPGQGLEWMGNIFPGSAYINYNEKFKGKVTITADTSTSTAYMELSSLRSEDTAVYFCAREGSNSGYWGQGTLVTVSS
VL: DIVMTQSPDSLAVSLGERATINCKSSQSLLNSGNQQNYLAWYQQKPGQPPKLLIYGASTRESGVPDRFSGSGSGTDFTLTISSLQAEDVAVYYCQSDHIYPYTFGQGTKLEIKR
notes: IgG (detected with anti-human Fc); also called 阳性对照抗TROP-2单抗
With B1, the 50% effective concentration (EC50) with 重组Human-TROP-2-HIS蛋白 worked out at 0.0261 nM. That is a picomolar value.

B2: 人源化SP34 (抗CD3单抗阳性对照) (antibody, human IgG1, kappa, V domains shown)
VH: EVQLVESGGGLVQPGGSLRLSCAASGFTFNTYAMNWVRQAPGKGLEWVARIRSKYNNYATYYADSVKDRFTISRDDSKNTLYLQMNSLRAEDTAVYYCVRHGNFGNSYVSWFAYWGQGTLVTVSS
VL: QAVVTQEPSLTVSPGGTVTLTCRSSTGAVTTSNYANWVQQKPGQAPRGLIGGTNKRAPGVPARFSGSLLGGKAALTLSGAQPEDEAEYYCALWYSNLWVFGQGTKVEIKR
notes: Full-length humanised SP34: VH + human IgG1 constant region, VL + human Kappa constant region; also called 阳性对照CD3单抗; 人源化SP34单克隆抗体
With B2, the midpoint of the response in the test with 重组Human-CD3-FC蛋白, the EC50, lay at 0.0618 nM.

For orientation: EC50 means the midpoint of the concentration-response curve.

For the origin of these results see patent publication CN117126289A (SUNSHINE GUOJIAN PHARMACEUTICAL SHANGHAI CO LTD, dated 2023).
